Test results from PMC9741242, “Insights into the Structure of the Highly Glycosylated Ffase from Rhodotorula dairenensis Enhance Its Biotechnological Potential” (International Journal of Molecular Sciences, 2022).

How the values were obtained:
[1] = target: D188A-RdINVΔ21–139, truncated inactivated mutant of Rhodotorula dairenensis β-fructofuranosidase (Rhodotorula dairenensis CECT 1416); test: crystal structure; D188A-RdINVΔ21–139, deglycosylated, complexes with fructose, sucrose or raffinose; PEG 3350, Bis-Tris pH 5.5; space group P2(1), four molecules in the asymmetric unit
[2] = target: β-fructofuranosidase from Rhodotorula dairenensis (RdINV), wild type (Rhodotorula dairenensis CECT 1416); test: crystal structure; wild-type RdINV, deglycosylated; 25% PEG 3350, 0.2 M ammonium acetate, 0.1 M Bis-Tris pH 5.5; space group C222(1), two molecules in the asymmetric unit

## D188A-RdINVΔ21–139, truncated inactivated mutant of Rhodotorula dairenensis β-fructofuranosidase (enzyme)
[1]
  stoichiometry N: 2

## β-fructofuranosidase from Rhodotorula dairenensis (RdINV), wild type (enzyme)
[2]
  stoichiometry N: 2
